The chains are these.
T1: GST-Rev-erbα LBD (human)
T1 sequence (P20393 whole entry, looked up): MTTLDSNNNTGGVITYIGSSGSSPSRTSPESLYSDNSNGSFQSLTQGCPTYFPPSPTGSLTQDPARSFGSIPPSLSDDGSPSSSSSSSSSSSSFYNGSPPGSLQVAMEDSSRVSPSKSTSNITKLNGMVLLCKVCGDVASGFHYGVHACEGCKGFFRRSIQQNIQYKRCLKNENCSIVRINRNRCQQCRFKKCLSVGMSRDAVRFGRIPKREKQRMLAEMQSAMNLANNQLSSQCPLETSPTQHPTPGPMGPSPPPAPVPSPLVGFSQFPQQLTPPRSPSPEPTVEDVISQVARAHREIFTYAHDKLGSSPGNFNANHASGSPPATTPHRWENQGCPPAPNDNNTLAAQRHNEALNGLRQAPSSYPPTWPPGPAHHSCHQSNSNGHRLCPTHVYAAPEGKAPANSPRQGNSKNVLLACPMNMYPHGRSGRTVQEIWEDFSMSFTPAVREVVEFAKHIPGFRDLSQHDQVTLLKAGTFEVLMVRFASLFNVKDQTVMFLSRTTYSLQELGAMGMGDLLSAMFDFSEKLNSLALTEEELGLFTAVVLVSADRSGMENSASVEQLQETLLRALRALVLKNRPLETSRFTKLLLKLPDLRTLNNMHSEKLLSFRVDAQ

B1: human Rev-erbα LBD (281–614 Δ324–422) (domain or fragment, UniProt P20393 281-614, looked up)
chain: PEPTVEDVISQVARAHREIFTYAHDKLGSSPGNFNANHASGSPYPHGRSGRTVQEIWEDFSMSFTPAVREVVEFAKHIPGFRDLSQHDQVTLLKAGTFEVLMVRFASLFNVKDQTVMFLSRTTYSLQELGAMGMGDLLSAMFDFSEKLNSLALTEEELGLFTAVVLVSADRSGMENSASVEQLQETLLRALRALVLKNRPLETSRFTKLLLKLPDLRTLNNMHSEKLLSFRVDAQ

The subject of data set [1] is Rev-erbα LBD. As to conditions: NCoR ID1 peptide; cited from earlier work.
The target in data set [2] is T1, GST-Rev-erbα LBD (human). Briefly: FRET or BRET. (Bioluminescence resonance energy transfer reports proximity on the nanometre scale.)
In data set [3] the target is B1. The data set is described as follows: crystal structure.
Data set [4] concerns the molecule itself. Briefly: crystal structure.

Regarding `C=CC1=C(C)c2cc3[n-]c(cc4[n-]c(cc5nc(cc1n2)C(C)=C5C=C)c(C)c4CCC(=O)O)c(CCC(=O)O)c3C.[Fe+2]` [heme], the “Effect of heme binding on interaction of Rev-erbα LBD with ID1 peptide” value in data set [1] was “destabilizes the interaction of Rev-erbα with the ID1 peptide”.
Turning to “control wild type NCoR ID1 (2040–2065) peptide (from UniProt O75376 2040-2065)”, in data set [2], the IC50 was found to be 220 nM.
“NCoR (2040–2065) +1Ile2055 alanine mutant peptide (from UniProt O75376 2040-2065)” gave an IC50 in data set [2] of 50300 nM.
On to “NCoR (2040–2065) +9F2063A peptide (from UniProt O75376 2040-2065)”, for which the IC50 in data set [2] stood at 1900 nM.
In data set [2], “NCoR (2040–2065) +5Ile2059 alanine mutant peptide (from UniProt O75376 2040-2065)” had an IC50 of 19400 nM.
Still for that read-out and setting: in the case of “NCoR (2040–2065) +4Ile2058 alanine mutant peptide (from UniProt O75376 2040-2065)” it was 8100 nM; in that of “NCoR (2040–2065) −4Leu2051A peptide (from UniProt O75376 2040-2065)”, 600 nM; in that of “NCoR (2040–2065) −9His2046A peptide (from UniProt O75376 2040-2065)”, 540 nM.
As for “NCoR (2040–2065) −7Leu2048A peptide (from UniProt O75376 2040-2065)”, the IC50 in data set [2] is 570 nM.
For “NCoR (2040–2065) −1H2054A peptide (from UniProt O75376 2040-2065)”, in data set [2], the IC50 came out at 250 nM.
Regarding THRLITLADHICQIITQDFAR [NCoR CoRNR1 peptide (2045–2065)], the binding result in data set [3] is “binds”.
For the molecule B1, in data set [4], the binding result is given as “binds”.

The term IC50 denotes the concentration needed to halve the response being measured.

The values are drawn from paper PMC3719173 (Nature structural & molecular biology, 2010).
